Experimental data: patent US20030027314A1 (published 2003)

How the values were obtained:
c-Jun (unmodified) [1] = test: thermal melting curve, mixture (FIG. 4)
c-Jun (unmodified) [2] = test: from thermal melts, Kd at 37 °C (FIG. 4)
CREB (unmodified) = molecular target: T1, CREB (unmodified); test: thermal melting curve, mixture (FIG. 3)
T1 construct: also called unmodified CREB
T1 sequence (chain, from a related filing, looked up): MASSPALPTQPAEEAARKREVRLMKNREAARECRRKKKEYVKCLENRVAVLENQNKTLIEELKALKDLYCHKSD

[3] = molecular target: the molecule itself; test: CD thermal melt, homodimer, 150 mM KCl
[4] = molecular target: the molecule itself; test: homodimer, study of FIG. 9 (method not given)

Sequence of c-Jun (unmodified) (chain, from a related filing, as listed by the source): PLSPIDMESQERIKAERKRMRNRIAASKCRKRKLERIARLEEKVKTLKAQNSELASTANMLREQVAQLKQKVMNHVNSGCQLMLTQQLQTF

B1: 4heptad-Fos (c-Fos with the basic region replaced by four acidic heptad repeats) (designed binder)
chain: MASMTGGQQMGRDPDLEQRAEELARENEELEKEAEELEQENAELEAETDQLEDEKSALQTEIANLLKEKEKLEFILAAHRPACKIP
notes: How the two entries relate is not explained; also called aFos; aZIP 4heptadFos
- Tm (c-Jun (unmodified) [1]): 61 °C
- Kd (c-Jun (unmodified) [2]): 6 nM

B2: 4heptadCREB (CREB with 4 heptad repeats appended at the amino terminus) (designed binder)
chain: ASMTGGQQMGRDPDLEQRAEELARENEELEKEAEELEQENAELENRVAVLENQNKTLIEELKALKDLYCHKSD
notes: also called 4hep-CREB
- Tm (CREB (unmodified)): 53 °C

B3: 0heptad-F (F zipper with the basic region deleted) (designed binder)
chain: ASMTGGQQMGRDPGGGTQQEVLELESRNDRLRKEVEQLERELDTLRGIFRQLPESSLVKAMGNCA
notes: expressed in E. coli; also called 0heptad-F (H); heterodimerizing zipper
- delta G at 25 °C [3]: -8 kcal/mol

B4: 0heptadMax (dimerization domain of Max without an acidic extension) (other)
chain: ASMTGGQQMGRDPDLEELEDSFHSLRDSVPSLQGEKASRAQILDKATEYIQYMRRKNHTHQQDIDDLKRQNALLEQQVRALEKARSSAQLQT
- Kd [4]: 100 nM
